We go through one molecule from patent US20200230173A1 (US Dept. of Health and Human Services, published 2020).

The target of the assay is T1, human TNFR2-Fc fusion protein (human, UniProt P20333 23-257).
T1 construct: not shown: Fc part
T1 sequence (looked up): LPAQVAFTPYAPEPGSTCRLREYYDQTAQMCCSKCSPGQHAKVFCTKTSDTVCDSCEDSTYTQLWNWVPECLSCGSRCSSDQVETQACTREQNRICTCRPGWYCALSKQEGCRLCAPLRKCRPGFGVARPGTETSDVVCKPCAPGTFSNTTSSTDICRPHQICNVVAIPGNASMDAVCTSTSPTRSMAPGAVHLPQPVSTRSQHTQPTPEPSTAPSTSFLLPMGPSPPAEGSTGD
Kind of assay: selection from a phage display scFv library on human TNFR2-Fc.

B1: human TNFR2-specific monoclonal antibody E4 (antibody, V domains shown)
VH: QITLKESGPTLVKPTQTLTLTCTFSGFSLTTSGVGVGWIRQPPGKALEWLALIYWDDDKRYSPSLKSRLTITKDTSKNQVVLTMTNMDPVDTATYYCAHLDGSGSLDYWGQGTLVTVSS
VL: QSVLTQPPSASGTPGQRVTISCSGSTSNIGRNSVNWYSHLPGAAPKLLISGNDQRPSGVPDRFSGSKSDNTASLTVSGLQAEDEAHYYCSSSAANLGVFGGGTKLTVLG
As for B1, the binding result was “binds”.
